In assay [1] the target is T1, biotin-^K48Ub2 (chemically synthesized K48-linked di-ubiquitin, biotin on the distal Ub) (UniProt P0CG48 1-76, isopeptide bond from the C-terminus of the distal Ub to Lys48 of the proximal Ub; biotin at the N-terminus of the distal Ub).
T1 construct: mature; also called Lys48-linked ubiquitin dimer
Briefly: SPR, K48-Ub2.

Assay [2] deals with T1, biotin-^K48Ub2 (chemically synthesized …). In words: SPR, K48-Ub2. The source holds these as a separate data set.
Assay [3] deals with T2, biotin-^K48Ub4 (chemically synthesized K48-linked tetra-ubiquitin, biotin on the distal Ub) (UniProt P0CG48 1-76, isopeptide bonds from the C-terminus of each Ub to Lys48 of the next Ub; biotin at the N-terminus of the distal Ub).
T2 construct: mature; also called Ub tetramer
Briefly: SPR (Biacore T100), biotin-Ub chain on the chip, peptide in flow; error 7.

In assay [4] the target is T1, biotin-^K48Ub2 (chemically synthesized …). In words: SPR (Biacore T100), biotin-Ub chain on the chip, peptide in flow; error 28.
For assay [5], the target named is T2, biotin-^K48Ub4 (chemically synthesized …). Briefly: SPR (Biacore T100), biotin-Ub chain on the chip, peptide in flow; error 4.
The target in assay [6] is T1, biotin-^K48Ub2 (chemically synthesized …). Briefly: SPR (Biacore T100), biotin-Ub chain on the chip, peptide in flow; error 8.
The target is the same in assay [7]. In words: SPR, K48-Ub2; mClBz anchor; wildtype J08, no mutations.
In assay [8] the target is T2, biotin-^K48Ub4 (chemically synthesized …). In words: SPR (Biacore T100), biotin-Ub chain on the chip, peptide in flow; error 0.002.
For assay [9] the target is unchanged. In words: SPR (Biacore T100), biotin-Ub chain on the chip, peptide in flow; error 7.30E+05.

Starred links: 1 amine or outer side, 2 acyl side, 3 side chain; linkers in the order of their positions; H or OH if unused. Positions of bridges follow the written chain, without caps; N, C: chain ends. Non-standard residues stand in square brackets, D forms with d. No end group written: not given here. mClBz = N-terminal chlorobenzyl thioether anchor (M*) that cyclises onto the Cys, the meta form of the mClBz/pClBz pair, O=C(c1cccc(C[*:3])c1)[*:2]; code ∗ = not defined here

B1: Ub4i cyclic peptide (peptide)
peptide: WGWFDDLYLFVAYCG
modifications: position 1 is ClAc-D-Trp (M* of Table 2); macrocycle closed between the N-terminal chloroacetyl group and the Cys
notes: also called U4i
With B1, the dissociation constant Kd was determined as 90 nM in assay [1], 90 nM in assay [2], 26 nM in [3] and 91 nM in assay [4].

B2: Ub2i cyclic peptide (peptide)
peptide: {CH2CO}-[dW]GWFDNLYWYVTHCG
modifications: thioether N-14
notes: also called U2i
In the case of B2, the Kd in assay [5] is 14 nM.

B3: Ub2ii cyclic peptide (peptide)
peptide: WWYDREYYYLGYGCG
modifications: position 1 is ClAc-D-Trp (M* of Table 2); macrocycle closed between the N-terminal chloroacetyl group and the Cys
notes: also called U2ii
Take B3: the Kd in assay [1] stood at 33 nM; in assay [6], 33 nM; in assay [5] it was 14 nM.

B4: J08_mClBz (peptide)
peptide: mClBz-GWFDDLYLFVAYCG
modifications: bridge N-13; not fully specified (bridges)
notes: also called J08 (M* = mClBz)
For the molecule B4, the Kd in assay [1] and in [7] was 10 nM throughout.

B5: J08_mClBz_L6E (peptide)
peptide: mClBz-GWFDDEYLFVAYCG
modifications: bridge N-13; not fully specified (bridges)
As for B5, the Kd in assay [1] and in [2] was 5 nM each time.

B6: Ub4ix cyclic peptide (peptide)
peptide: {code ∗}-[dW]LYLDDSGDWWICG
modifications: thioether N-13 (inferred); reading uncertain; also: printed as *WLYLDDSGDWWICG
notes: also called U4ix; Ub4xi
In turn, B6 yielded a koff in [8] of 0.021 s⁻¹. The same molecule came in with a kon in assay [9] of 3.52e+06 M⁻¹ s⁻¹.

The record behind these values is patent US12084523 (TECHNION RESEARCH AND DEVELOPMENT FOUNDATION, dated 2024).
